The test concerns the target fusin/CXCR4 receptor (human) (UniProt P61073).

Substance “purified human SDF-1β chemokine, prepared in E. coli and containing an N-terminal methionine residue (from UniProt P48061) (ligand)” returned an anti-fusin antibody staining of Jurkat cells after 3-hour incubation at 37 degrees C, Median Channel (Median Channel) of 22.3.

(Values after patent US6730296B1.)
